# Data taken from patent publication EP4624492A1 (Shanghai Hongcheng Biopharmaceutical Co., Ltd., dated 2025).
# Numbering of substitutions follows the chain as printed.
# B1: 563E10E12_mIgG2a (antibody)
# heavy: EVQLIESGGGLVQPKGSLKLSCAASGFNFNAYAMNWVRQAPGKGLEWVARIRSKSNNFATYYADSVTDRFTISRDDSESMLYLQMNNLKTEDTAMYYCVRHGRRDLLYSMDFWGQGTSVTVSSAKTTAPSVYPLAPVCGDTTGSSVTLGCLVKGYFPEPVTLTWNSGSLSSGVHTFPAVLQSDLYTLSSSVTVTSSTWPSQSITCNVAHPASSTKVDKKIEPRGPTIKPCPPCKCPAPNLLGGPSVFIFPPKIKDVLMISLSPIVTCVVVDVSEDDPDVQISWFVNNVEVHTAQTQTHREDYNSTLRVVSALPIQHQDWMSGKEFKCKVNNKDLPAPIERTISKPKGSVRAPQVYVLPPPEEEMTKKQVTLTCMVTDFMPEDIYVEWTNNGKTELNYKNTEPVLDSDGSYFMYSKLRVEKKNWVERNSYSCSVVHEGLHNHHTTKSFSRTPGK
# light: DVVMTQAAFSNPVTLGTSTSISCRSSKSLLHSNGITYLFWYLQKPGQSPQLLIYQMSNLASGVPDRFSGSGSGTDFTLRISRVEAEDVGVYYCAQSLELPLTFGGGTKLEIKRADAAPTVSIFPPSSEQLTSGGASVVCFLNNFYPKDINVKWKIDGSERQNGVLNSWTDQDSKDSTYSMSSTLTLTKDEYERHNSYTCEATHKTSTSPIVKSFNRNEC
# notes: also called mIgG2a-subclass chimeric antibody 563E10E12
# B2: 569D11B5_mIgG2a (antibody)
# heavy: B1 heavy with N57D, T67K, D68G, S79N, Y82F
# light: B1 light with V2I, T19A
# notes: also called mIgG2a-subclass chimeric antibody 569D11B5
# B3: 589D7C7_mIgG2a (antibody)
# heavy: B1 heavy with I5V, T67K, L81V, Q84E
# light: B1 light with V2I, T19A, G89A
# notes: also called mIgG2a-subclass chimeric antibody 589D7C7
# B4: 27B9-1G3_hIgG1 (antibody, V domains shown)
# VH: EIQLQQSGPELEKPGASVKISCKASGYSFTGYNMNWVKKSNGKSLEWIGNIDPYYGGTNYNQKFKGKATLTVDKSSSTAYMQLKSLTSEDSAVYYCARETWFITTGVIKKGFYFDYWGQGTTLTVSS
# VL: EIVLTQSPTTMAASPGEKITLACSASSIISSNYLHWYQQKPGFSPKLLIYRTSSLASGVPARFSGSGSGTSYSLTIGTMEAEDVATYYCQQGSSIPRTFGGGTKLEIKR
# notes: also called hIgG1-subclass chimeric antibody 27B9-1G3
# B5: 559E1B10_mIgG2a (antibody)
# heavy: KVQLQQSGPVLVKPGASVKMSCKASGYTFTDYYVNWMKQNYGKSPEWIGVINPHNGDTRYNQKFKGKATLTVDKSSSTANMELTSLTSGDSAVYYCASWLRRGYYFDSWGQGTTLTVSSAKTTAPSVYPLAPVCGDTTGSSVTLGCLVKGYFPEPVTLTWNSGSLSSGVHTFPAVLQSDLYTLSSSVTVTSSTWPSQSITCNVAHPASSTKVDKKIEPRGPTIKPCPPCKCPAPNLLGGPSVFIFPPKIKDVLMISLSPIVTCVVVDVSEDDPDVQISWFVNNVEVHTAQTQTHREDYNSTLRVVSALPIQHQDWMSGKEFKCKVNNKDLPAPIERTISKPKGSVRAPQVYVLPPPEEEMTKKQVTLTCMVTDFMPEDIYVEWTNNGKTELNYKNTEPVLDSDGSYFMYSKLRVEKKNWVERNSYSCSVVHEGLHNHHTTKSFSRTPGK
# light: DIVMTQSPATLSVTPGDRVSLSCRASQSISDYLHWYQQKSHESPRLLLKYVSQSISGIPSRFSGSGSGSDFTLTINSVEPEDVGVYYCQNGHSFPLTFGAGTKLELKRADAAPTVSIFPPSSEQLTSGGASVVCFLNNFYPKDINVKWKIDGSERQNGVLNSWTDQDSKDSTYSMSSTLTLTKDEYERHNSYTCEATHKTSTSPIVKSFNRNEC
# notes: also called mIgG2a-subclass chimeric antibody 559E1B10
# B6: 563E10E12_hIgG1 (antibody)
# heavy: not shown
# light: DVVMTQAAFSNPVTLGTSTSISCRSSKSLLHSNGITYLFWYLQKPGQSPQLLIYQMSNLASGVPDRFSGSGSGTDFTLRISRVEAEDVGVYYCAQSLELPLTFGGGTKLEIKRTVAAPSVFIFPPSDEQLKSGTASVVCLLNNFYPREAKVQWKVDNALQSGNSQESVTEQDSKDSTYSLSSTLTLSKADYEKHKVYACEVTHQGLSSPVTKSFNRGEC
# notes: also called hIgG1-subclass chimeric antibody 563E10E12
# B7: 563E10E12_hzH1L1_hIgG1 (antibody)
# heavy: not shown
# light: B6 light with A7S, A8P, F9L, N11L, L15P, T17E, S18P, T19A, R79K, L109V
# notes: Humanized, hIgG1/K
# B8: 559E1B10_hzH1L1_hIgG1 (antibody)
# heavy: not shown
# light: EIVLTQSPATLSLSPGERATLSCRASQSISDYLHWYQQKPGQAPRLLLKYVSQSISGIPARFSGSGSGTDFTLTISSLEPEDFAVYYCQNGHSFPLTFGGGTKVEIKRTVAAPSVFIFPPSDEQLKSGTASVVCLLNNFYPREAKVQWKVDNALQSGNSQESVTEQDSKDSTYSLSSTLTLSKADYEKHKVYACEVTHQGLSSPVTKSFNRGEC
# notes: Humanized, hIgG1/K
# B9: 563E10E12_hzH1L0_DE (antibody, human IgG1, kappa)
# heavy: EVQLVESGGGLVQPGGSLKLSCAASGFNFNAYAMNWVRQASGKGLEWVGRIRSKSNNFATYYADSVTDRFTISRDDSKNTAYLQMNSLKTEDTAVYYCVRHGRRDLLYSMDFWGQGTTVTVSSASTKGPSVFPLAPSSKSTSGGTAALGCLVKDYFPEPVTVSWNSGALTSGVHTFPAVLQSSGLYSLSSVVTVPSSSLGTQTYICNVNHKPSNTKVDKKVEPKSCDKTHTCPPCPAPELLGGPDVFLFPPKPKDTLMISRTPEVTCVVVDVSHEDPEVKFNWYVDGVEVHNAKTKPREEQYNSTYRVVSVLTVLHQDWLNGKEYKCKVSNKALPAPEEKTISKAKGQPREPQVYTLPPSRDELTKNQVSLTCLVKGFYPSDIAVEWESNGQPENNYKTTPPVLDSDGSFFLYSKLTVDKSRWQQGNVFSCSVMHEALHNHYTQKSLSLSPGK
# light: DIVMTQSPLSLPVTPGEPASISCRSSKSLLHSNGITYLFWYLQKPGQSPQLLIYQMSNLASGVPDRFSGSGSGTDFTLKISRVEAEDVGVYYCAQSLELPLTFGGGTKVEIKRTVAAPSVFIFPPSDEQLKSGTASVVCLLNNFYPREAKVQWKVDNALQSGNSQESVTEQDSKDSTYSLSSTLTLSKADYEKHKVYACEVTHQGLSSPVTKSFNRGEC
# B10: 563E10E12_hzH1L0_AF (antibody, human IgG1, kappa)
# heavy: not shown
# light: B9 light
# modifications: afucosylated (expressed in ExpiCHO cells with 2F-peracetyl-fucose)
# B11: 563E10E12_hzH1L0_DLE (antibody, human IgG1, kappa)
# heavy: EVQLVESGGGLVQPGGSLKLSCAASGFNFNAYAMNWVRQASGKGLEWVGRIRSKSNNFATYYADSVTDRFTISRDDSKNTAYLQMNSLKTEDTAVYYCVRHGRRDLLYSMDFWGQGTTVTVSSASTKGPSVFPLAPSSKSTSGGTAALGCLVKDYFPEPVTVSWNSGALTSGVHTFPAVLQSSGLYSLSSVVTVPSSSLGTQTYICNVNHKPSNTKVDKKVEPKSCDKTHTCPPCPAPELLGGPDVFLFPPKPKDTLMISRTPEVTCVVVDVSHEDPEVKFNWYVDGVEVHNAKTKPREEQYNSTYRVVSVLTVLHQDWLNGKEYKCKVSNKALPLPEEKTISKAKGQPREPQVYTLPPSRDELTKNQVSLTCLVKGFYPSDIAVEWESNGQPENNYKTTPPVLDSDGSFFLYSKLTVDKSRWQQGNVFSCSVMHEALHNHYTQKSLSLSPGK
# light: B9 light
# Biological target: T1, human CCR8 (human, UniProt P51685 1-355)
# Test: cell-based or functional assay
# T1 sequence (P51685 whole entry): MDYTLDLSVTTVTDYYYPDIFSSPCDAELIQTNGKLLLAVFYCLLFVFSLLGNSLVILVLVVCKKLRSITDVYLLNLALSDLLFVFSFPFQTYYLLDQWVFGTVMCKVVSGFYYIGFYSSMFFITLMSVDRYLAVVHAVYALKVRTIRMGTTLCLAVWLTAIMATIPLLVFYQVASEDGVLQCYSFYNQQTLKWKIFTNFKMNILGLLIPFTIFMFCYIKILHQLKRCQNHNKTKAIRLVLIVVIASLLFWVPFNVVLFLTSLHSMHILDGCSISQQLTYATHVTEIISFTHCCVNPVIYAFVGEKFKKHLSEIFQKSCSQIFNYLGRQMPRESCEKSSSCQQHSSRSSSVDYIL
row,Binder,IC50 of blockade of CCL1-induced β-arrestin recruitment (Tango-H_CCR8-CHO-K1 cells) [µg/mL]
1,B1,0.902
2,B2,0.997
3,B3,0.993
4,B4,0.26
5,B5,1.76

# Biological target: T1, human CCR8
# Test: cell-based or functional assay
# Remark: another data set of the same source
row,Binder,IC50 of blockade of CCL1-induced β-arrestin recruitment [µg/mL]
1,B6,1.72
2,B7,1.61
3,B8,28.1

# Biological target: T1, human CCR8
# Test: cell-based or functional assay
# Remark: another data set of the same source
row,Binder,EC50 of activation of Jurkat-human FcγRIIIa(158V)-NFAT with 293F-hCCR8 target cells [µg/mL]
1,B8,0.0421

# Biological target: T1, human CCR8
# Test: cell-based or functional assay
# Remark: another data set of the same source
row,Binder,EC50 of activation of Jurkat-human FcγRIIIa(158V)-NFAT with 293F-hCCR8 target cells [µg/mL]
1,B6,0.0216
2,B7,0.0283

# Biological target: T1, human CCR8
# Test: cell-based or functional assay
# Remark: another data set of the same source
row,Binder,EC50 of activation of Jurkat-human FcγRIIIa(158V)-NFAT with CHOK1-hCCR8 target cells [µg/mL]
1,B8,0.0265

# Biological target: T1, human CCR8
# Test: cell-based or functional assay
# Remark: another data set of the same source
row,Binder,EC50 of activation of Jurkat-human FcγRIIIa(158V)-NFAT with 293F-hCCR8 target cells [µg/mL]
1,B7,0.0089
2,B8,0.0133
3,B9,0.0009
4,B10,0.0009
5,B11,0.0007

# Biological target: T1, human CCR8
# Test: cell-based or functional assay
# Remark: another data set of the same source
row,Binder,EC50 of activation of Jurkat-human FcγRIIIa(158V)-NFAT with HuT78 target cells [µg/mL]
1,B9,0.0083
2,B10,0.011
3,B11,0.0057

# Biological target: T1, human CCR8
# Test: cell-based or functional assay
# Remark: another data set of the same source
row,Binder,EC50 of ADCC effect (lysis%) by human PBMCs on CHOK1-hCCR8 cells [µg/mL]
1,B9,0.0006
2,B10,0.00031
3,B11,0.00039

# Biological target: T1, human CCR8
# Test: flow cytometry on 293F-hCCR8 cells
row,Binder,EC50 [µg/mL]
1,B1,0.0833
2,B2,0.0835
3,B3,0.0947
4,B6,0.0273
5,B4,0.273
6,B5,0.1

# Biological target: T1, human CCR8
# Test: flow cytometry on 293F-hCCR8 cells
# Remark: another data set of the same source
row,Binder,EC50 [µg/mL]
1,B6,0.073
2,B7,0.124
3,B4,0.139
4,B8,0.114

# Biological target: T1, human CCR8
# Test: flow cytometry on CHOK1-hCCR8 cells
row,Binder,EC50 [µg/mL]
1,B7,0.0423
2,B8,0.036

# Biological target: T2, cynomolgus CCR8 (cynomolgus monkey)
# T2 construct: whole, on cells; the constructs of the cell lines are not tied to it word for word; also called cynoCCR8
# Test: flow cytometry on 293T-cynoCCR8 cells
row,Binder,EC50 [µg/mL]
1,B1,0.0664
2,B2,0.072
3,B3,0.0662
4,B4,0.305
5,B5,0.0819

# Biological target: T2, cynomolgus CCR8
# Test: flow cytometry on 293T-cynoCCR8 cells
# Remark: another data set of the same source
row,Binder,EC50 [µg/mL]
1,B6,0.0473
2,B7,0.0264
3,B8,0.0876

# Biological target: T1, human CCR8
# Test: flow cytometry on HuT78 cells (endogenous CCR8)
row,Binder,EC50 [µg/mL]
1,B7,0.0545
2,B8,15.2

# Biological target: T1, human CCR8
# Test: flow cytometry, competition with 10 nM AF647-human CCL1 on 293F-hCCR8 cells
row,Binder,IC50 [µg/mL]
1,B1,0.0411
2,B2,0.0544
3,B3,0.0579
4,B6,0.0295
5,B4,0.273
6,B5,0.0649

# Biological target: T1, human CCR8
# Test: as above
# Remark: another data set of the same source
row,Binder,IC50 [µg/mL]
1,B6,0.0513
2,B7,0.0835
3,B4,0.0959
4,B8,0.15
